Experimental findings from article PMC12167484, “Specific phosphoinositide interaction of Jps1 is a key feature during unconventional secretion in Ustilago maydis” (The Journal of Biological Chemistry, 2025) are described below.

The target in one test is T1, Cts1 (Mycosarcoma maydis, UniProt A0A0D1DVM8).
T1 construct: gene UMAG_10419; native Cts1, extracellular on intact U. maydis AB33 cells or in native cell extracts
T1 sequence (A0A0D1DVM8 1-502): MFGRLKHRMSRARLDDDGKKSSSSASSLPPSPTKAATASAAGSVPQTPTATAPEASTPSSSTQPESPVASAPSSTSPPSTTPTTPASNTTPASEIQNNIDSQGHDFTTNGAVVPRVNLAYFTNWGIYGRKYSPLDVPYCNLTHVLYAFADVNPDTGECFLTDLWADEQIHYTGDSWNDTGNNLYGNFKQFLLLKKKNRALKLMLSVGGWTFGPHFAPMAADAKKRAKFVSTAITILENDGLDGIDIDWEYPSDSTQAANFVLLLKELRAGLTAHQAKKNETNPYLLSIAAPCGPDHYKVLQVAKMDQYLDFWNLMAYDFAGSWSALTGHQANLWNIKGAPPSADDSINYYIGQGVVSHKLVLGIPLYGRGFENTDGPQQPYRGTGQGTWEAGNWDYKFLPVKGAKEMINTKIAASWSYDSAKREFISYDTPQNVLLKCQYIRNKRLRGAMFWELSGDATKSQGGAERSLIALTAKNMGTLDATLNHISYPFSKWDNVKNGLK
The test is described as follows: fluorogenic chitinase assay, intact cells or native extract. The following applies: KHM buffer (110 mM potassium acetate, 20 mM Hepes, 2 mM MgCl2), 25 °C. The test is classed as cell-based.

Test [1] concerns the target Hebeloma cylindrosporum Jps1, full-length recombinant (Hebeloma cylindrosporum). The test is described as follows: SEC-MALS; after SEC purification the sample was applied to a Superdex 200 10/30 column coupled to a miniDAWN TREOS light scattering detector and a refractive index detector; monomer to dimer. On the technique in general: Size exclusion chromatography separates by hydrodynamic size, large species first.

In a further test the target is T2, UmJps1 (Jps1^1-609) (Mycosarcoma maydis, UniProt A0A0D1C3B2).
T2 construct: gene UMAG_03776; full length, 609 residues; 6xHis-Jps1 made in E. coli Rosetta(DE3) pLyS (pET22b, C-terminal His-tag in strip assay); homodimer 134 kDa
T2 sequence (A0A0D1C3B2 1-609): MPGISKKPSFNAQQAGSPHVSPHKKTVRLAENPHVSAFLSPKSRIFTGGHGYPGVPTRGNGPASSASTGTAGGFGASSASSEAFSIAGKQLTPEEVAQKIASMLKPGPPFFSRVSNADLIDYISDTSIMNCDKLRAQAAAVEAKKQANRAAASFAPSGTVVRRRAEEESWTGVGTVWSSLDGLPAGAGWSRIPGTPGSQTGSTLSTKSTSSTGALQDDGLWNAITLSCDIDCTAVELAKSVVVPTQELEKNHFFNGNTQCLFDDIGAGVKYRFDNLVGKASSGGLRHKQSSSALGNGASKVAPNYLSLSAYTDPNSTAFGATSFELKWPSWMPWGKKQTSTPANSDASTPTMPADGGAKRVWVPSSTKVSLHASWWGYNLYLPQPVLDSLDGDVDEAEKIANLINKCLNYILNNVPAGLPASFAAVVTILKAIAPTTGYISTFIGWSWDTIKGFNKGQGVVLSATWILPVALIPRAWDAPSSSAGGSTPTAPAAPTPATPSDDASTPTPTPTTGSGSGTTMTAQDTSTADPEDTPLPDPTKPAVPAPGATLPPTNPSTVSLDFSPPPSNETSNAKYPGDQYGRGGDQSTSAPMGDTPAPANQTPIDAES
The test is described as follows: liposome co-sedimentation, SDS-PAGE. The class given is binding. The note with it: DOPC:cholesterol:PIP 80:15:5 (with cholesterol); protein:lipid 1:5000; pH 7.5, room temperature.

The next test deals with T3, HcJps1 (Hebeloma cylindrosporum, UniProt A0A0C3CFZ0).
T3 construct: gene M413DRAFT_206302; full length, 287 residues; 6xHis-GB1 fusion made in E. coli (GB1 tag cleaved with TEV before SEC; codon-optimised gene for U. maydis)
T3 sequence (A0A0C3CFZ0 1-287): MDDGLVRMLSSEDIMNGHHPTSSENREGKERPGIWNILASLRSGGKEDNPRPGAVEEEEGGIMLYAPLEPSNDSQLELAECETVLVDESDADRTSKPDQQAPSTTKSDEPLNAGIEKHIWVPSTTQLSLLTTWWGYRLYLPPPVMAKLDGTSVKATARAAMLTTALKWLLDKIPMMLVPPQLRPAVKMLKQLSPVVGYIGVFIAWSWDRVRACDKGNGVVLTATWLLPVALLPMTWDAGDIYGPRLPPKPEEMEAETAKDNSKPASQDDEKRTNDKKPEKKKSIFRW
Put plainly: surface plasmon resonance, immobilised liposomes, steady-state affinity. The test is classed as binding. The following applies: DOPC/PI(4,5)P2 liposomes (1 mM lipid) on LP chip, DOPC reference; 20 mM Hepes pH 7.5, 20 mM KCl, 200 mM NaCl; 0.2-6.4 μM protein. On the technique in general: In SPR one partner is held on a chip, and binding of the other changes the refractive index at the surface.

For test [2], the target named is Sporisorium reilianum Jps1, full-length recombinant (Sporisorium reilianum). The test is described as follows: SEC-MALS; after SEC purification the sample was applied to a Superdex 200 10/30 column coupled to a miniDAWN TREOS light scattering detector and a refractive index detector; monomer to dimer.
Test [3] shares this target. The test is described as follows: mass photometry; TwoMP mass photometer, protein at 10 nM in Hepes buffer, room temperature; monomer to dimer.
In test [4] the target is Ustilago maydis Jps1, full-length recombinant (Jps1^1-609) (Ustilago maydis). The test is described as follows: SEC-MALS; after SEC purification the sample was applied to a Superdex 200 10/30 column coupled to a miniDAWN TREOS light scattering detector and a refractive index detector; monomer to dimer.
The target is the same in test [5]. Put plainly: mass photometry; TwoMP mass photometer, protein at 10 nM in Hepes buffer, room temperature; monomer to dimer.
Test [6] concerns the target Ustilago maydis Jps1^1-484 (lacking the unstructured C-terminus) (Ustilago maydis). Put plainly: SEC-MALS; after SEC purification the sample was applied to a Superdex 200 10/30 column coupled to a miniDAWN TREOS light scattering detector and a refractive index detector; monomer to dimer.
Test [7] has the same target. The test is described as follows: SAXS; P12 beamline, batch mode, 10 °C, 0.6 mg/ml purified Jps1^1-484; rigid body modeling of the dimer with CORAL.

`CC(=O)N[C@H]1[C@H](Oc2ccc3c(C)cc(=O)oc3c2)O[C@H](CO)[C@@H](O[C@@H]2O[C@H](CO)[C@@H](O[C@@H]3O[C@H](CO)[C@@H](O)[C@H](O)[C@H]3NC(C)=O)[C@H](O)[C@H]2NC(C)=O)[C@@H]1O` [MUC, 4-methylumbelliferyl-β-D-N, N′, N’’-triacetylchitotrioside]: the “fluorogenic chitinase assay, intact cells or native extract” value at Cts1 is listed as “MUC, a fluorogenic substrate 4-methylumbelliferyl-β-D-N, N′, N’’-triacetylchitotrioside”. What is called stoichiometry N is a count of units in the complex or per binding partner. For the compound “Hebeloma cylindrosporum Jps1, full-length recombinant (natural protein)”, in test [1], the stoichiometry N came out at 2. By Kd is commonly meant the constant that tells how readily two partners part at equilibrium. A low value points to tighter binding. For the compound PI(4,5)P2, the “% of input protein bound” value on UmJps1 (Jps1^1-609) is listed as ~ 50%. In addition, the affinity on HcJps1, expressed as Kd, was 900 nM. With “Sporisorium reilianum Jps1, full-length recombinant (natural protein)”, the stoichiometry N in [2] and in test [3] was 2 throughout. Turning to “Ustilago maydis Jps1, full-length recombinant (Jps1^1-609) (natural protein)”, the stoichiometry N in test [4] is 2. In test [5], the percent of particles in the dimer fraction amounted to 69% and the stoichiometry N was found to be 2.

As for “Ustilago maydis Jps1^1-484 (lacking the unstructured C-terminus) (domain or fragment)”, the stoichiometry N in test [6] and in test [7] was 2 throughout.
